The supplement of paper PMC10724198
± gives the standard deviation of the averaged measurements.

tested on: Saccharomyces cerevisiae; test: protein stability index of tFT-peptide fusion (C-terminal peptide) (PSI (0-1 scale)); higher = more stable (slower turnover); conditions: genetic background: doa10 deletion; temperature: 30 C
Experimental: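 MPS profiling in S. cerevisiae of the tFT-X12 degron library: putative degron peptides plus stable controls, 12 aa, fused to the C-terminus of a sfGFP-mCherry timer. Cells are FACS-sorted into 8 mCherry/sfGFP bins and deep-sequenced. PSI runs from 0 (unstable) to 1 (stable). Backgrounds are wild type, das1Δ and doa10Δ at 30 °C, and wild type, das1Δ, cdc34-1 and cdc53-1 at 37 °C; 2-3 technical replicates each.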
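Note: PSI is a weighted mean of sequencing reads over stability bins, variants kept only with over 10 reads, mCherry proximal and sfGFP distal, peptide attached via GGGS linker.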

Point of comparison: GLFLLWWLGWLV, protein stability index 0.333 ± 0.02. Against it:
- FVMTYCLMSVSK — lower, 0.063 ± 0.0057
- FVRSVFFCVSVG — within error, 0.34 ± 0.012
- FVWAVGLVSASV — higher, 0.379 ± 0.013
- FWLFAFVIRKHI — lower, 0.10098 ± 0.0001
- FYSLYLSLVCFN — lower, 0.161 ± 0.01
- GAVKCLVCLAVW — lower, 0.26 ± 0.011
- GCGFSFFHIVVL — higher, 0.416 ± 0.0071
- GCLFMQVSLFWR — lower, 0.177 ± 0.0049
- GDINRNTRYLEK — higher, 0.649 ± 0.0063
- GFGRRGQFGGTG — higher, 0.542 ± 0.039
- GFRVTTCASWIC — lower, 0.143 ± 0.012
- GFSEGRLTIPVY — lower, 0.2949 ± 0.0027
- GFVISSCRLFIL — lower, 0.272 ± 0.021
- GFVLLCFCCRTW — lower, 0.2477 ± 0.00056
- GGCYAGVAMRLI — higher, 0.632 ± 0.014
- GGGVGVVWVRLG — lower, 0.0905 ± 0.017
- GGLFRWCVWRIV — lower, 0.102 ± 0.016
- GGSWVRCLRTMG — lower, 0.17 ± 0.0073
- GGVWLSVVSWVG — lower, 0.0676 ± 0.00079
- GGWSLFCIVVVV — lower, 0.167 ± 0.013
- GIFVWWFWGCCG — lower, 0.293 ± 0.02
- GILILRLILCLF — lower, 0.171 ± 0.0058
- GILLLLISRVVF — lower, 0.197 ± 0.039
- GILVVAASICYV — within error, 0.342 ± 0.0088
- GKKKREWKKNRI — lower, 0.217 ± 0.026
- GLCLFLIGVFSV — lower, 0.2104 ± 0.0019
- GLFAVWVVGVWC — lower, 0.0955 ± 0.013
- GLFLYCCLVSLL — lower, 0.191 ± 0.00083
- GLLLVWAALGFV — lower, 0.221 ± 0.007
- GLVVWWLSGWLW — lower, 0.221 ± 0.026
- GMGHLSNVCLKT — higher, 0.636 ± 0.026
- GRLDHWNKHKYI — lower, 0.104 ± 0.013

same assay, conditions: genetic background: wild type; temperature: 30 C

Point of comparison: GFGRRGQFGGTG, protein stability index 0.567 ± 0.04. Against it:
- FVMTYCLMSVSK — lower, 0.07 ± 0.016
- FVRSVFFCVSVG — lower, 0.373 ± 0.027
- FVWAVGLVSASV — lower, 0.414 ± 0.03
- FWLFAFVIRKHI — lower, 0.089 ± 0.0045
- FYSLYLSLVCFN — lower, 0.127 ± 0.016
- GAVKCLVCLAVW — lower, 0.3 ± 0.026
- GCGFSFFHIVVL — lower, 0.152 ± 0.022
- GCLFMQVSLFWR — lower, 0.138 ± 0.044
- GDINRNTRYLEK — higher, 0.6339 ± 0.0032
- GFRVTTCASWIC — lower, 0.15 ± 0.027
- GFSEGRLTIPVY — lower, 0.345 ± 0.06
- GFVISSCRLFIL — lower, 0.264 ± 0.024
- GFVLLCFCCRTW — lower, 0.277 ± 0.035
- GGCYAGVAMRLI — within error, 0.62 ± 0.027
- GGGVGVVWVRLG — lower, 0.114 ± 0.014
- GGLFRWCVWRIV — lower, 0.102 ± 0.0098
- GGSWVRCLRTMG — lower, 0.158 ± 0.028
- GGVWLSVVSWVG — lower, 0.0976 ± 0.011
- GGWSLFCIVVVV — lower, 0.173 ± 0.035
- GIFVWWFWGCCG — lower, 0.321 ± 0.017
- GILILRLILCLF — lower, 0.189 ± 0.018
- GILLLLISRVVF — lower, 0.227 ± 0.021
- GILVVAASICYV — lower, 0.359 ± 0.017
- GKKKREWKKNRI — lower, 0.257 ± 0.041
- GLCLFLIGVFSV — lower, 0.237 ± 0.023
- GLFAVWVVGVWC — lower, 0.111 ± 0.045
- GLFLLWWLGWLV — lower, 0.376 ± 0.02
- GLFLYCCLVSLL — lower, 0.193 ± 0.019
- GLLLVWAALGFV — lower, 0.251 ± 0.043
- GLVVWWLSGWLW — lower, 0.276 ± 0.025
- GMGHLSNVCLKT — higher, 0.645 ± 0.019
- GRLDHWNKHKYI — lower, 0.0786 ± 0.026
